Experimental data: US20260234290A1, “Antibodies to Stat3 Decoy Oligonucleotide” (The Regents of the University of California, priority 2023, published 2026)

Tested on: CS3D
Test: BLI koff of purified Fabs from CS3D biopanning
Type: binding
Method: First, standard biopanning (FIG. 1) was performed with Ag immobilized magnetic beads. A total of six rounds were performed with increasing stringency of washes and decreasing amounts of Ag per round. Assuming strong enrichment occurred continuously throughout the campaign, 95 colonies were randomly picked each round 4-6 (285 clones total) for candidate hit screening.
In efforts to identify improved binders, BIAS was performed with identical clones picked previously that were randomly sequenced. […] Therefore, we hypothesized that strong growth/display propensity biases were a dominant factor during the campaign, leading primarily to the identification of low-affinity binders.
Fluorescent activated sorting was applied to round 4 as both the population percentage and the normalized MFI of the shoulder population are the highest (FIG. 7). The shoulder population (top ~4%) was sorted along with the majority population (bottom ~96%) and both populations were used to infect TG1 (E. coli) cells. […] BIAS hits of the top ~4% sorted population were sequenced, and a new candidate binder, SP1-B3, was identified, along with identical clones of previously identified low-affinity binders.
All buffers were filter sterilized with […] filters prior to preparing samples. Black 384 well microplates were used to set up BLI plates and streptavidin tips were purchased by Sartorius. Kinetic constants of Fabs were determined by Octet RED384 system with continuous shaking at 1000 rpm in RT. Prior to the experiment, biological tips (model name) were presoaked in buffer to allow for equilibration for 1 hour. Data were analyzed using 1:1 interaction model on the ForteBio data analysis software 12.0.
Freshly transformed BL21 (DE3) E. coli single colony clones were picked and inoculated into 50 ml of 2×YT media containing 2% glucose and […] Ampicillin. Starter cultures were grown overnight at 37 °C with 200 rpm shaking. […]

B1: SP1-B3: anti-CS3D Fab from RAPID sorting of round 4; VH SEQ ID NO: 3, VL SEQ ID NO: 4 (antibody, V domains shown)
VH: QVTLQQSGPGLVKPSQTLSLTCAISGDSVSSNSAAWNWIRQSPSRGLEWLGRTYYRSKWFTYYAASVKGRISINRDTSKNQFSLQLNSVTPDDTAVYFCARGSGGYIDHWGQGTLVTVSS
VL: QAVLTQPSSLSASPGASASLTCTLRSGINVDSYRIYWYQQKPGSPPQYLLRYKSDSDKQQGSGVPSRFSGSKDASANAGILLISGLQSEDEADYYCMIWHSSAVVFGGGTKLTVL
koff fold lower than the Fab with the highest koff: > 20 fold | koff fold lower than the previously identified Fab with the lowest koff: ~ 3 fold | koff (measured at 2 μM Fab): 0.0211 s⁻¹
